Source: PMC11065761
Where two headings read alike, the source gives them in different places.

What was measured:
Test in all cases: SPR
C3b [1] = biological target: C3b
[2] = biological target: C4b biotinylated at the free sulfhydryl group of the thioester moiety
C3b [3] = biological target: C3b; remark: listed apart in the source
C4b (amine coupled) = biological target: C4b (amine coupled)
C3d = C3d (UniProt P01024)
Sequence of C3d (P01024 1002-1303): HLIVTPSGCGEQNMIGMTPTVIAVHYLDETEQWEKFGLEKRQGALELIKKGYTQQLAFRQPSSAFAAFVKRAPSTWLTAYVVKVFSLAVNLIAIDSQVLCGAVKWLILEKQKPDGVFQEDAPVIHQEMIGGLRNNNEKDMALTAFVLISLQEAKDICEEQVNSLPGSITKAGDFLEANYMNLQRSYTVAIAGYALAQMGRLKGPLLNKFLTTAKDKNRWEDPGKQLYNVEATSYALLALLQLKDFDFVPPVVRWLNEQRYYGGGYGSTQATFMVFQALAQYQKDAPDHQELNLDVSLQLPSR

Sequence of Full-length factor H (FH) (P08603 19-1231): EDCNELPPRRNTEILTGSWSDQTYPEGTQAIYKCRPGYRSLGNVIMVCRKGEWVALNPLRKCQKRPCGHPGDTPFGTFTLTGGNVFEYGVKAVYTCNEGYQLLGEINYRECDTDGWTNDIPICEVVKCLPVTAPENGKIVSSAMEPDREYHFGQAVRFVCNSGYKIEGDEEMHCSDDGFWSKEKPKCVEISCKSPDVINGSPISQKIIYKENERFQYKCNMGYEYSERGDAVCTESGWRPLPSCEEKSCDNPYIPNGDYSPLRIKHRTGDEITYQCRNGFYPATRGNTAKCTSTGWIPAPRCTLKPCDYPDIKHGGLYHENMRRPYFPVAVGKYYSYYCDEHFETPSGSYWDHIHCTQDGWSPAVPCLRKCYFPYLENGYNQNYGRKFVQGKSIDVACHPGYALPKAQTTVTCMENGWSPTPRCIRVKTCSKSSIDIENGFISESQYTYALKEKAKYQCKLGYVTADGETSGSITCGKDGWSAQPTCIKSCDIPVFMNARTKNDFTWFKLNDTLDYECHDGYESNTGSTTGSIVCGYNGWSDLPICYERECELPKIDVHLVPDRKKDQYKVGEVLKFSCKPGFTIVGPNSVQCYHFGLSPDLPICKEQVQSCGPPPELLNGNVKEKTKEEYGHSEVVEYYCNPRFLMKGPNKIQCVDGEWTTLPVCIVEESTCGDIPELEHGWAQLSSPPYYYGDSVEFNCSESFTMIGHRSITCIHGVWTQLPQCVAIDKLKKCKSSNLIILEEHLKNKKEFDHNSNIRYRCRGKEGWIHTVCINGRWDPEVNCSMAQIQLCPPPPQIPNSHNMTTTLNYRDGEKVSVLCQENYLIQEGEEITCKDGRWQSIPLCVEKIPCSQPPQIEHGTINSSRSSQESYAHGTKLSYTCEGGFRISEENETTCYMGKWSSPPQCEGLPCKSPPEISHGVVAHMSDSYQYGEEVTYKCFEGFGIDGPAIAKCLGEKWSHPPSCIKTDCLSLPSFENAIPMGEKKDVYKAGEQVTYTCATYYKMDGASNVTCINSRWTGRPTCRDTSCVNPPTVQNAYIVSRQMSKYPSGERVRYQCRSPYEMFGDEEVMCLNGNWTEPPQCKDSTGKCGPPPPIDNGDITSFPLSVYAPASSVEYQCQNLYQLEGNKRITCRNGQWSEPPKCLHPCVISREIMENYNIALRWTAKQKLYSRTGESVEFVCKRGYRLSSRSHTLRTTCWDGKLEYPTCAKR

Substance	Kd (C3b [1])	Kd [2]	Kd (C3b [3])	Kd (C4b (amine coupled))	Kd (C3d)
CR1(15–17), the middle CCP domains 15 to 17 of complement receptor 1 (domain or fragment)	900 nM	7800 nM	–	–	–
DAF(1–4), the first four CCP domains of decay accelerating factor (domain or fragment)	11000 nM	17600 nM	–	–	–
DAF(1–4)FH(19–20)-LL (long linker, polyglycine linker of 13 residues)	175 nM	–	–	–	–
DAF(1–4)FH(19–20)-SL (short linker, "GPGG")	125 nM	–	–	–	–
FH(19–20), the two C-terminal CCP domains of factor H (domain or fragment)	4700 nM	–	–	–	–
Full-length factor H (FH) (from UniProt P08603 19-1231) (natural protein)	–	–	802 nM	–	–
TriFu_6G (triple fusion complement inhibitor, 6 glycine residues between DAF and FH)	50 nM	643 nM	59 nM	865 nM	22000 nM
TriFu_13G (triple fusion complement inhibitor, 13 glycine residues between DAF and FH)	–	–	25 nM	–	–
